In publication PMC12748787 (Communications Biology, 2025):

B5: CaV1.2 JBM (as used in SEC and SEC-MALS) (domain or fragment)
chain: not shown
B6: Trx-CaV1.2 JBM (domain or fragment)
chain: not shown

Tests used:
[1] = target: B6; test: ITC
[2] = target: B5; test: SEC-MALS
[3] = target: T1, JPH2 MORN-Helix (as used in SEC-MALS) (mouse, UniProt Q9ET78 1-440, Δ176-273); test: SEC-MALS
T1 sequence (looked up): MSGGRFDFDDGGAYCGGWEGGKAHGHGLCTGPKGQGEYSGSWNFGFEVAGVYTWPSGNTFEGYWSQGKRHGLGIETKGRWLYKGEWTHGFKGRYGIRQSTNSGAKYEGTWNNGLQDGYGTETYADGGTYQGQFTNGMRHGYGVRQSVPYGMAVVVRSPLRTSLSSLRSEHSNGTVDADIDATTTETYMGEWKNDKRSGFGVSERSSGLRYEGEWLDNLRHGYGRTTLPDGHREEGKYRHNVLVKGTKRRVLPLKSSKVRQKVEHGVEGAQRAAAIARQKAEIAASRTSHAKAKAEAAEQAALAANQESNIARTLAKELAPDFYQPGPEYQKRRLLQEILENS

[4] = target: T2, MBP-Mus_JPH3 NT WT (mouse, UniProt Q9ET77 1-446); test: ITC
T2 sequence (looked up): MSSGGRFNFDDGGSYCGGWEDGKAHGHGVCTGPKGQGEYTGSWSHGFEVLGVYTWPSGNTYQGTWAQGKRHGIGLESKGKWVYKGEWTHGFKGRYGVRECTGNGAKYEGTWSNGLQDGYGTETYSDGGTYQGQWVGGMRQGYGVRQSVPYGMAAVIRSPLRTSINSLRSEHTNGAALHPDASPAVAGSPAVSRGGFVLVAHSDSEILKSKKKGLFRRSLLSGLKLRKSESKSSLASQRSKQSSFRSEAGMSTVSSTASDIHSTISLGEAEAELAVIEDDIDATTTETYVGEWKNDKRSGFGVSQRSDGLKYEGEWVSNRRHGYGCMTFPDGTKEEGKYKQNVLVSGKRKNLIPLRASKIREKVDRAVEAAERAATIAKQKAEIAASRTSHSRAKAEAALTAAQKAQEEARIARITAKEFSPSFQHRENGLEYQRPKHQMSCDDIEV

[5] = target: T3, MBP-JPH2 NT (mouse, wild type) (mouse, UniProt Q9ET78 1-440); test: ITC
T3 sequence (looked up): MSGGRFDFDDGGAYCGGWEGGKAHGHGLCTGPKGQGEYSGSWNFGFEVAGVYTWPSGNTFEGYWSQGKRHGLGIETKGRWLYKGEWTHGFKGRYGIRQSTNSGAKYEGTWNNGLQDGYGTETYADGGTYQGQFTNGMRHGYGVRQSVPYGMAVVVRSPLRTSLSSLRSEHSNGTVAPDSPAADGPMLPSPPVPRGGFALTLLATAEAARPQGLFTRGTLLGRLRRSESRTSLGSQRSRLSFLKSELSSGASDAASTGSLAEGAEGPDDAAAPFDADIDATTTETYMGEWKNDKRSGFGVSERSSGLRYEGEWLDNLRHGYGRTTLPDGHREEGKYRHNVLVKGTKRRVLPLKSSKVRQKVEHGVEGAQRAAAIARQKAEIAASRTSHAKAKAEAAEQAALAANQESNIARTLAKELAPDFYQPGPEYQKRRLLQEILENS

[6] = target: T4, MBP-JPH2 MORN-Helix (mouse, UniProt Q9ET78 1-440, Δ176-273); test: ITC
T4 sequence (looked up): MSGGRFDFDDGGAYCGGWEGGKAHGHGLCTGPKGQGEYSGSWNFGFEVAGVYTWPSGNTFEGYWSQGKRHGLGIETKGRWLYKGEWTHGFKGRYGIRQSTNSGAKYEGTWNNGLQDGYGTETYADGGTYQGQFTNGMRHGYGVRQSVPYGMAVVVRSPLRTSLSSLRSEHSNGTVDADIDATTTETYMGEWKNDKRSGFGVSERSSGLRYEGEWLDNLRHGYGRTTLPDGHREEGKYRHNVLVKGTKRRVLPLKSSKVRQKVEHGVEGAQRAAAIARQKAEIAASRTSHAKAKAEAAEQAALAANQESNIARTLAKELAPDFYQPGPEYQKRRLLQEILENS

[7] = target: T5, MBP-Mus_JPH1 NT WT (mouse, UniProt Q9ET80 1-436); test: ITC
T5 sequence (looked up): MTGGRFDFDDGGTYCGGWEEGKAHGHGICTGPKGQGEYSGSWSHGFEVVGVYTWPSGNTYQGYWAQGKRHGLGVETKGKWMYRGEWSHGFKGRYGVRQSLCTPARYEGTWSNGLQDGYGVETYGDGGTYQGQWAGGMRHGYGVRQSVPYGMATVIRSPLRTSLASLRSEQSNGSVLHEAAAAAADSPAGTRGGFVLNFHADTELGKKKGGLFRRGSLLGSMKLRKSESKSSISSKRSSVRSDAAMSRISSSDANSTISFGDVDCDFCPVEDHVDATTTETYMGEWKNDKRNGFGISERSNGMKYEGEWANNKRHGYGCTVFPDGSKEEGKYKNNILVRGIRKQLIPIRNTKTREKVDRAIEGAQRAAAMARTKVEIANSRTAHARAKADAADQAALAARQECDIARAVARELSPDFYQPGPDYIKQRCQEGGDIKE

B1: JPH2 NT S165I (domain or fragment, mouse, UniProt Q9ET78 1-440, looked up)
chain: MSGGRFDFDDGGAYCGGWEGGKAHGHGLCTGPKGQGEYSGSWNFGFEVAGVYTWPSGNTFEGYWSQGKRHGLGIETKGRWLYKGEWTHGFKGRYGIRQSTNSGAKYEGTWNNGLQDGYGTETYADGGTYQGQFTNGMRHGYGVRQSVPYGMAVVVRSPLRTSLSILRSEHSNGTVAPDSPAADGPMLPSPPVPRGGFALTLLATAEAARPQGLFTRGTLLGRLRRSESRTSLGSQRSRLSFLKSELSSGASDAASTGSLAEGAEGPDDAAAPFDADIDATTTETYMGEWKNDKRSGFGVSERSSGLRYEGEWLDNLRHGYGRTTLPDGHREEGKYRHNVLVKGTKRRVLPLKSSKVRQKVEHGVEGAQRAAAIARQKAEIAASRTSHAKAKAEAAEQAALAANQESNIARTLAKELAPDFYQPGPEYQKRRLLQEILENS
fold decrease in affinity against the wild type [1]: 2 fold

B2: JPH2 NT (mouse, wild type, as used in SEC-MALS) (domain or fragment, UniProt Q9ET78 1-440, looked up)
chain: MSGGRFDFDDGGAYCGGWEGGKAHGHGLCTGPKGQGEYSGSWNFGFEVAGVYTWPSGNTFEGYWSQGKRHGLGIETKGRWLYKGEWTHGFKGRYGIRQSTNSGAKYEGTWNNGLQDGYGTETYADGGTYQGQFTNGMRHGYGVRQSVPYGMAVVVRSPLRTSLSSLRSEHSNGTVAPDSPAADGPMLPSPPVPRGGFALTLLATAEAARPQGLFTRGTLLGRLRRSESRTSLGSQRSRLSFLKSELSSGASDAASTGSLAEGAEGPDDAAAPFDADIDATTTETYMGEWKNDKRSGFGVSERSSGLRYEGEWLDNLRHGYGRTTLPDGHREEGKYRHNVLVKGTKRRVLPLKSSKVRQKVEHGVEGAQRAAAIARQKAEIAASRTSHAKAKAEAAEQAALAANQESNIARTLAKELAPDFYQPGPEYQKRRLLQEILENS
stoichiometry N [2]: 1

B3: MBP-JPH2 NT S165Y (domain or fragment, mouse, UniProt Q9ET78 1-440, looked up)
chain: MSGGRFDFDDGGAYCGGWEGGKAHGHGLCTGPKGQGEYSGSWNFGFEVAGVYTWPSGNTFEGYWSQGKRHGLGIETKGRWLYKGEWTHGFKGRYGIRQSTNSGAKYEGTWNNGLQDGYGTETYADGGTYQGQFTNGMRHGYGVRQSVPYGMAVVVRSPLRTSLSYLRSEHSNGTVAPDSPAADGPMLPSPPVPRGGFALTLLATAEAARPQGLFTRGTLLGRLRRSESRTSLGSQRSRLSFLKSELSSGASDAASTGSLAEGAEGPDDAAAPFDADIDATTTETYMGEWKNDKRSGFGVSERSSGLRYEGEWLDNLRHGYGRTTLPDGHREEGKYRHNVLVKGTKRRVLPLKSSKVRQKVEHGVEGAQRAAAIARQKAEIAASRTSHAKAKAEAAEQAALAANQESNIARTLAKELAPDFYQPGPEYQKRRLLQEILENS
fold weakening of the binding against the wild type [1]: ~3 fold

B4: JPH2 NT S165L (domain or fragment, mouse, UniProt Q9ET78 1-440, looked up)
chain: MSGGRFDFDDGGAYCGGWEGGKAHGHGLCTGPKGQGEYSGSWNFGFEVAGVYTWPSGNTFEGYWSQGKRHGLGIETKGRWLYKGEWTHGFKGRYGIRQSTNSGAKYEGTWNNGLQDGYGTETYADGGTYQGQFTNGMRHGYGVRQSVPYGMAVVVRSPLRTSLSLLRSEHSNGTVAPDSPAADGPMLPSPPVPRGGFALTLLATAEAARPQGLFTRGTLLGRLRRSESRTSLGSQRSRLSFLKSELSSGASDAASTGSLAEGAEGPDDAAAPFDADIDATTTETYMGEWKNDKRSGFGVSERSSGLRYEGEWLDNLRHGYGRTTLPDGHREEGKYRHNVLVKGTKRRVLPLKSSKVRQKVEHGVEGAQRAAAIARQKAEIAASRTSHAKAKAEAAEQAALAANQESNIARTLAKELAPDFYQPGPEYQKRRLLQEILENS
fold decrease in affinity against the wild type [1]: 2 fold

Binder: B5
binding result [3]: binds

Binder: B6
Kd [4]: 5.82 ± 0.36 µM
Kd [5]: ~6.04 µM
binding result [6]: binds
Kd [7]: 5.54 ± 0.71 µM
